We go through two substances from PMC5017722.

A word on the stoichiometry N: it is a count of units in the complex or per binding partner.

Experiment [1] addresses soluble postfusion hMPV F (NL/1/00, A1 sublineage), furin-cleaved, fusion peptide residues 103-111 d (human metapneumovirus, strain NL/1/00 (A1 sublineage)). Briefly: SEC; HiLoad 16/600 Superdex 200 pg; 50 mM Na2HPO4 pH 8.0, 300 mM NaCl. For orientation: SEC sorts molecules by how far they enter the pores of the column.
Experiment [2] has as its target soluble hMPV F ectodomain (1-489, NL/1/00, G294E) with C-terminal TEV site, Foldon, Xa site and 6xHis-tag, uncleaved (human metapneumovirus, strain NL/1/00 (A1 sublineage)). The experiment is described as above.

With “soluble postfusion hMPV F (NL/1/00, A1 sublineage), furin-cleaved, fusion peptide residues 103-111 d (domain or fragment)”, the stoichiometry N in experiment [1] came to 3.
Regarding “soluble hMPV F ectodomain (1-489, NL/1/00, G294E) with C-terminal TEV site, Foldon, Xa site and 6xHis-tag, uncleaved (domain or fragment)”, in experiment [2], the stoichiometry N came to 3.
